From US20150246947A1 (BAXALTA, published 2015)
Values joined by “and” are separate entries in the source; they are usually repeats but may differ in a detail not shown here. Equal values may be shown once. Read-outs that look alike come from different tables or passages of the source. One block for each binder: values may come before it. Positions of bridges follow the written chain, without caps; N, C: chain ends.

Assays:
[1] = target: T1, human Protein S (UniProt P07225 42-676); test: LANCE competition
T1 chain: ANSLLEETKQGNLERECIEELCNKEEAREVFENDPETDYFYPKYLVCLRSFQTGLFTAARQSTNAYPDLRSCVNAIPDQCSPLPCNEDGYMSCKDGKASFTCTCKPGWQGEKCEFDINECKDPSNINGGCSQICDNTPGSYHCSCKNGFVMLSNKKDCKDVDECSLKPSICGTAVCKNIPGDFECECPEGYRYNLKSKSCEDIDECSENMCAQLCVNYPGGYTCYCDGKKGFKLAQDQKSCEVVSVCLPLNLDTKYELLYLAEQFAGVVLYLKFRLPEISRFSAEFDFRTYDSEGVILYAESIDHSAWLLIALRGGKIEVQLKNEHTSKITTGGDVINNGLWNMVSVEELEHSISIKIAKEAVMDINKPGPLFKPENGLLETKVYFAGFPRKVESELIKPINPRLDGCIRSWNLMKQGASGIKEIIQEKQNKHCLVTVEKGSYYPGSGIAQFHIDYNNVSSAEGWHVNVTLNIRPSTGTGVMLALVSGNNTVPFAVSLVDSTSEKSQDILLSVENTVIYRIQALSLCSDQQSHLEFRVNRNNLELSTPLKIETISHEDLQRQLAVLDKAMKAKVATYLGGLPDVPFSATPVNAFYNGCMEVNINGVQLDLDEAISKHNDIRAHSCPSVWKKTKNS
Outline: (§1)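 IC50 was derived by non-linear regression of the acceptor emission in a LANCE time-resolved FRET competition assay using europium-labelled Protein S, ULight-labelled streptavidin, a biotinylated tracer peptide and three-fold titrations of unlabelled test peptide. Reactions of 50 µl contained 10 nM Protein S, 100 nM streptavidin and 300 nM tracer at final concentration (2 nM Protein S and 60 nM tracer on a Tecan F500), were kept 1 hour at room temperature, and were read at Ex 340 nm, Em 665 nm.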

[2] = target: T1, human Protein S; test: LANCE competition
Outline: as §1

IC50 [1]: 67.8 nM
B1: JBS3242 (peptide)
chain: Ac-EYYVSAGWHDYNKDIYFEFF-NH2

IC50 [1]: 55.2 nM
B2: JBS3172 (peptide)
chain: CGLVSAGWYDYNFDCYREFT

IC50 [1]: 3.7 nM
B3: JBS2928 (peptide)
chain: Ac-YGLVSAGWYDYNFDHYREFT-NH2

IC50 [1]: 2 nM
B4: JBS3240 (peptide)
chain: Ac-EYYVSAGWYDYNNDIYYEFI-NH2

IC50 [1]: 1.3 nM
B5: JBS3224 (peptide)
chain: MEYYVSAGWYDYNTDTYYEFE

IC50 [1]: 2.2 nM
B6: JBS3246 (peptide)
chain: Ac-EYYVSAGWYDYEHDTYLEFY-NH2

IC50 [1]: 2 nM
B7: JBS3239 (peptide)
chain: Ac-EYYVSAGWYDTNNDRYYEFI-NH2

IC50 [1]: 2.7 nM
B8: JBS3234 (peptide)
chain: Ac-EYYVSAGWYDYNADTYYEFE-NH2

IC50 [1]: 14.6 nM
B9: JBS3295 (peptide)
chain: Ac-DDEVSIGWYDYNTDEYVEFW-NH2

IC50 [2]: 20.1 nM
B10: JBS2713 (peptide)
chain: TGLVSAGWYDYNFDHYREFTC

IC50 [1]: 1.3 nM
B11: JBS3217 (peptide)
chain: Ac-EYYVSAGWYDYNDDKYYEFE-NH2

IC50 [1]: 544 nM
B12: JBS3169 (peptide)
chain: TGCLVSAGWYDYNCDHYREFT

IC50 [1]: 1.3 nM
B13: JBS3243 (peptide)
chain: Ac-EYYVSAGWYDYNNDTYNEFW-NH2

IC50 [2]: 4.4 nM
B14: JBS2885 (peptide)
chain: Ac-TGLVSAGWYDYNFDTYREFT-NH2

IC50 [1]: 1.9 nM
B15: JBS3247 (peptide)
chain: Ac-EYYVSAGWYNYEEDSYYEFE-NH2

IC50 [1]: 1.4 nM
B16: JBS2941 (peptide)
chain: Ac-TGLVSAGWYDYNFDHYYEFT-NH2

IC50 [2]: 4.4 nM and 5.5 nM
B17: JBS2810 (peptide)
chain: Ac-TGLVSAGWYDYNFDHYMEFT-NH2

IC50 [1]: 812 nM
B18: JBS3157 (peptide)
chain: CGLVSAGWYDCYNFDHYREFT

IC50 [1]: 208 nM
B19: JBS3173 (peptide)
chain: Ac-TCLVSAGWYDYNFDCYREFT-NH2
modifications: disulfide 2-15 (inferred); not fully specified

IC50 [1]: 206 nM
B20: JBS3170 (peptide)
chain: CGLVSAGWYDYNCDHYREFT

IC50 [1]: 981 nM
B21: JBS3160 (peptide)
chain: Ac-CGLVSAGWYDYNFCDHYREFT-NH2
modifications: disulfide 1-14
SMILES: CC(=O)N[C@H]1CSSC[C@@H](C(=O)N[C@@H](CC(=O)O)C(=O)N[C@@H](Cc2c[nH]cn2)C(=O)N[C@@H](Cc2ccc(O)cc2)C(=O)N[C@@H](CCCNC(=N)N)C(=O)N[C@@H](CCC(=O)O)C(=O)N[C@@H](Cc2ccccc2)C(=O)N[C@H](C(N)=O)[C@@H](C)O)NC(=O)[C@H](Cc2ccccc2)NC(=O)[C@H](CC(N)=O)NC(=O)[C@H](Cc2ccc(O)cc2)NC(=O)[C@H](CC(=O)O)NC(=O)[C@H](Cc2ccc(O)cc2)NC(=O)[C@H](Cc2c[nH]c3ccccc23)NC(=O)CNC(=O)[C@H](C)NC(=O)[C@H](CO)NC(=O)[C@H](C(C)C)NC(=O)[C@H](CC(C)C)NC(=O)CNC1=O

IC50 [1]: 1.5 nM
B22: JBS3237 (peptide)
chain: Ac-EYYVSAGWYDYNTDKYYEFI-NH2

IC50 [1]: 9 nM
B23: JBS3180 (peptide)
chain: Ac-GLVSAGWYDYNFDHYREFT-NH2

IC50 [1]: 1510 nM
B24: JBS3162 (peptide)
chain: Ac-TCLVSAGWYDCYNFDHYREFT-NH2
modifications: disulfide 2-11
SMILES: CC(=O)N[C@H](C(=O)N[C@H]1CSSC[C@@H](C(=O)N[C@@H](Cc2ccc(O)cc2)C(=O)N[C@@H](CC(N)=O)C(=O)N[C@@H](Cc2ccccc2)C(=O)N[C@@H](CC(=O)O)C(=O)N[C@@H](Cc2c[nH]cn2)C(=O)N[C@@H](Cc2ccc(O)cc2)C(=O)N[C@@H](CCCNC(=N)N)C(=O)N[C@@H](CCC(=O)O)C(=O)N[C@@H](Cc2ccccc2)C(=O)N[C@H](C(N)=O)[C@@H](C)O)NC(=O)[C@H](CC(=O)O)NC(=O)[C@H](Cc2ccc(O)cc2)NC(=O)[C@H](Cc2c[nH]c3ccccc23)NC(=O)CNC(=O)[C@H](C)NC(=O)[C@H](CO)NC(=O)[C@H](C(C)C)NC(=O)[C@H](CC(C)C)NC1=O)[C@@H](C)O

IC50 [1]: 1.3 nM
B25: JBS3238 (peptide)
chain: Ac-EYYVSAGWYDYNTDRYYEFY-NH2

IC50 [1]: 3.5 nM
B26: JBS3220 (peptide)
chain: Ac-EYTVSAGWYDYNKDTYEEFK-NH2

IC50 [1]: 336 nM
B27: JBS3171 (peptide)
chain: Ac-TCLVSAGWYDYNCDHYREFT-NH2
modifications: disulfide 2-13
SMILES: CC(=O)N[C@H](C(=O)N[C@H]1CSSC[C@@H](C(=O)N[C@@H](CC(=O)O)C(=O)N[C@@H](Cc2c[nH]cn2)C(=O)N[C@@H](Cc2ccc(O)cc2)C(=O)N[C@@H](CCCNC(=N)N)C(=O)N[C@@H](CCC(=O)O)C(=O)N[C@@H](Cc2ccccc2)C(=O)N[C@H](C(N)=O)[C@@H](C)O)NC(=O)[C@H](CC(N)=O)NC(=O)[C@H](Cc2ccc(O)cc2)NC(=O)[C@H](CC(=O)O)NC(=O)[C@H](Cc2ccc(O)cc2)NC(=O)[C@H](Cc2c[nH]c3ccccc23)NC(=O)CNC(=O)[C@H](C)NC(=O)[C@H](CO)NC(=O)[C@H](C(C)C)NC(=O)[C@H](CC(C)C)NC1=O)[C@@H](C)O

IC50 [1]: 2.3 nM
B28: JBS3273 (peptide)
chain: Ac-SATVSAGWYDYNKDVYFEFE-NH2

IC50 [1]: 0.6 nM
B29: JBS3251 (peptide)
chain: Ac-QYYVVAGWYDYNTDSYYEFD-NH2

IC50 [1]: 9.5 nM
B30: JBS3181 (peptide)
chain: Ac-TGLVSAGWYDYNFDHYREF-NH2

IC50 [1]: 20.9 nM
B31: JBS3182 (peptide)
chain: Ac-GLVSAGWYDYNFDHYREF-NH2

IC50 [1]: 0.8 nM
B32: JBS3215 (peptide)
chain: MEYYVSAGWYDYNTDTYYEFE

IC50 [1]: 7.2 nM
B33: JBS3185 (peptide)
chain: Ac-SGLVSAGWYDYNFDSYREFT-NH2

IC50 [2]: 16.4 nM
B34: JBS2659 (peptide)
chain: Ac-TGHVSAGWYDYNSDHYREFT-NH2

IC50 [1]: 604 nM
B35: JBS3168 (peptide)
chain: Ac-TGLCVSAGWYDYNCDHYREFT-NH2
modifications: disulfide 4-14
SMILES: CC(=O)N[C@H](C(=O)NCC(=O)N[C@@H](CC(C)C)C(=O)N[C@H]1CSSC[C@@H](C(=O)N[C@@H](CC(=O)O)C(=O)N[C@@H](Cc2c[nH]cn2)C(=O)N[C@@H](Cc2ccc(O)cc2)C(=O)N[C@@H](CCCNC(=N)N)C(=O)N[C@@H](CCC(=O)O)C(=O)N[C@@H](Cc2ccccc2)C(=O)N[C@H](C(N)=O)[C@@H](C)O)NC(=O)[C@H](CC(N)=O)NC(=O)[C@H](Cc2ccc(O)cc2)NC(=O)[C@H](CC(=O)O)NC(=O)[C@H](Cc2ccc(O)cc2)NC(=O)[C@H](Cc2c[nH]c3ccccc23)NC(=O)CNC(=O)[C@H](C)NC(=O)[C@H](CO)NC(=O)[C@H](C(C)C)NC1=O)[C@@H](C)O

IC50 [1]: 2 nM
B36: JBS3245 (peptide)
chain: Ac-EYYVSAGWYDYNSDTYFEFI-NH2

IC50 [1]: 1.2 nM
B37: JBS3241 (peptide)
chain: Ac-EYYVSAGWYDYNNDIYLEFE-NH2

IC50 [1]: 22.7 nM
B38: JBS3250 (peptide)
chain: Ac-TYYVSAGWYGYNNDRYYEFY-NH2

IC50 [2]: 16.4 nM
B39: JBS2740 (peptide)
chain: Ac-TGLVEAGWYDYNFDHYREFT-NH2
